This data set in a line: self-splicing fitness, log relative to wild type (ln ratio); higher = more splicing; Tetrahymena group I intron in knt gene, E. coli kanamycin selection, DiMSum; sequences stand for … in CUCUCU…GGAGGGAAAAGUUAUCAGGCAUGCACCUGGUAGCUAGUCUUUAAACCAAUAGAUUGCAUCGGUUUAAAAGGCAAGACCGUCAAAUUGCGGGAAAGGGGUCAACAGCCGUUCAGUACCAAGUCUCAGGGGAAACUUUGAGAUGGCCUUGCAAAGGGUAUGGUAAUAAGCUGACGGACAUGGUCCUAACCACGCAGCCAAGUCCUAAGUCAACAGAUCUUCUGUUGAUAUGGAUGCAGUUCACAGACUAAAUGUCGGUCGGGGAAGAUGUAUUCUUCUCAUAAGAUAUAGUCGGACCUCUCCUUAAUGGGAGCUAGCGGAUGAAGUGAUGCAACACUGGAGCCGCUGGGAACUAAUUUGUAUGCGAAAGUAUAUUGAUUAGUUUUGGAGUACUCGUGGUCG
In short, it runs like this:
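Pooled colonies went to amplicon sequencing on an Illumina HiSeq 2500 after six replicate transformations. The plates were LB agar with 100 μg/mL carbenicillin, 50 μM IPTG and 0.2% rhamnose, with or without 25 μg/mL kanamycin, incubated overnight at 37°C or 30°C. The E. coli BL21(DE3) library had all eight P1ex-region intron nucleotides randomised, the intron placed in the knt kanamycin-resistance gene on pET-22b(+). DiMSum fitness is the error-weighted combination of replicate fold changes, kanamycin against none, normalised to wild type.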

± gives the uncertainty stated by the source.

AAGUAGCAAUAUUACGACAU: the “self-splicing fitness (ln)” value is 0.0523 ± 0.012 (30 °C) and -0.0429 ± 0.033 (37 °C).

For the sequence AAGUAGCAAUAUUACGACCA, the “self-splicing fitness (ln)” value reads like this: (30 °C) -1.55 ± 0.16; (37 °C) 0.396 ± 0.21.

For the sequence AAGUAGCAAUAUUACGACUA, the “self-splicing fitness (ln)” value runs as follows: (30 °C) -0.0153 ± 0.098; (37 °C) 0.0263 ± 0.13.

Regarding AAGUAGCAAUAUUACGAGGG, the “self-splicing fitness (ln)” value (30 °C) was -3.71 ± 0.24 and the “self-splicing fitness (ln)” value (37 °C) is -3.29 ± 0.28.

AAGUAGCAAUAUUACGAGUU: the “self-splicing fitness (ln)” value was -1.86 ± 0.098 (30 °C) and -0.204 ± 0.096 (37 °C).

Turning to AAGUAGCAAUAUUACGAUCC, the “self-splicing fitness (ln)” value was -0.772 ± 0.19 (30 °C) and -0.304 ± 0.29 (37 °C).

Turning to AAGUAGCAAUAUUACGAUGA, the “self-splicing fitness (ln)” value is, setting by setting: (30 °C) -0.567 ± 0.14; (37 °C) -0.511 ± 0.15.

For AAGUAGCAAUAUUACGCAAU, the “self-splicing fitness (ln)” value (30 °C) is -2.09 ± 0.14 and the “self-splicing fitness (ln)” value (37 °C) was -1.46 ± 0.17.

As to AAGUAGCAAUAUUACGCGCU, the “self-splicing fitness (ln)” value (30 °C) was -1.47 ± 0.11 and the “self-splicing fitness (ln)” value (37 °C) is -0.822 ± 0.12.

AAGUAGCAAUAUUACGCGUA: the “self-splicing fitness (ln)” value is, setting by setting: (30 °C) -2.15 ± 0.13; (37 °C) -1.29 ± 0.14.

As to AAGUAGCAAUAUUACGCUCA, the “self-splicing fitness (ln)” value is, setting by setting: (30 °C) -0.287 ± 0.076; (37 °C) 0.5 ± 0.094.

Consider AAGUAGCAAUAUUACGGACU, for which the “self-splicing fitness (ln)” value was -0.577 ± 0.11 (30 °C) and -0.212 ± 0.15 (37 °C).

AAGUAGCAAUAUUACGGAUG: the “self-splicing fitness (ln)” value by setting is: (30 °C) -3.53 ± 0.39; (37 °C) -1.76 ± 0.17.

Regarding AAGUAGCAAUAUUACGGGAG, the “self-splicing fitness (ln)” value is, setting by setting: (30 °C) -4.01 ± 0.27; (37 °C) -2.82 ± 0.23.

For AAGUAGCAAUAUUACGGGUA, the “self-splicing fitness (ln)” value is -1.49 ± 0.16 (30 °C) and -1.09 ± 0.17 (37 °C).

With AAGUAGCAAUAUUACGGUAC, the “self-splicing fitness (ln)” value is -2.65 ± 0.18 (30 °C) and -1.75 ± 0.18 (37 °C).

For AAGUAGCAAUAUUACGGUCU, the “self-splicing fitness (ln)” value runs as follows: (30 °C) -0.291 ± 0.062; (37 °C) -0.0526 ± 0.086.

Turning to AAGUAGCAAUAUUACGUACA, the “self-splicing fitness (ln)” value is -0.476 ± 0.11 (30 °C) and -0.759 ± 0.14 (37 °C).

For AAGUAGCAAUAUUACGUAGG, the “self-splicing fitness (ln)” value by setting is: (30 °C) -4.35 ± 0.28; (37 °C) -1.75 ± 0.18.

With AAGUAGCAAUAUUACGUAUG, the “self-splicing fitness (ln)” value (30 °C) was -3.38 ± 0.22 and the “self-splicing fitness (ln)” value (37 °C) was -1.4 ± 0.19.

Regarding AAGUAGCAAUAUUACGUCGU, the “self-splicing fitness (ln)” value (30 °C) was -0.969 ± 0.093 and the “self-splicing fitness (ln)” value (37 °C) was -0.724 ± 0.11.

AAGUAGCAAUAUUACGUGAC: the “self-splicing fitness (ln)” value reads like this: (30 °C) -2.41 ± 0.19; (37 °C) -1.85 ± 0.4.

For the sequence AAGUAGCAAUAUUACGUGAU, the “self-splicing fitness (ln)” value runs as follows: (30 °C) -2.24 ± 0.098; (37 °C) -1.77 ± 0.12.

In the case of AAGUAGCAAUAUUACGUUGC, the “self-splicing fitness (ln)” value is, setting by setting: (30 °C) -3.66 ± 0.14; (37 °C) -3.19 ± 0.21.

As for AAGUAGCAAUAUUACGUUGG, the “self-splicing fitness (ln)” value was -2.96 ± 0.18 (30 °C) and -2.2 ± 0.23 (37 °C).

Consider AAUAAGCAAUAUUACGAACU, for which the “self-splicing fitness (ln)” value by setting is: (30 °C) -0.169 ± 0.11; (37 °C) 0.509 ± 0.14.

With AAUAAGCAAUAUUACGAGCC, the “self-splicing fitness (ln)” value runs as follows: (30 °C) -3.73 ± 0.29; (37 °C) -1.64 ± 0.22.

For AAUAAGCAAUAUUACGCAGA, the “self-splicing fitness (ln)” value is, setting by setting: (30 °C) -3.73 ± 0.3; (37 °C) -2.38 ± 0.23.

As for AAUAAGCAAUAUUACGCCGA, the “self-splicing fitness (ln)” value (30 °C) was -0.856 ± 0.14 and the “self-splicing fitness (ln)” value (37 °C) was -0.632 ± 0.16.

Consider AAUAAGCAAUAUUACGCGAA, for which the “self-splicing fitness (ln)” value (30 °C) was -1.74 ± 0.12 and the “self-splicing fitness (ln)” value (37 °C) is -1.01 ± 0.12.

Take AAUAAGCAAUAUUACGCGGU: the “self-splicing fitness (ln)” value runs as follows: (30 °C) -3.83 ± 0.24; (37 °C) -2.36 ± 0.17.

Turning to AAUAAGCAAUAUUACGCUGU, the “self-splicing fitness (ln)” value runs as follows: (30 °C) -2.61 ± 0.23; (37 °C) -1.92 ± 0.22.

AAUAAGCAAUAUUACGCUUG: the “self-splicing fitness (ln)” value was -1.39 ± 0.13 (30 °C) and -0.982 ± 0.15 (37 °C).

Turning to AAUAAGCAAUAUUACGGGCU, the “self-splicing fitness (ln)” value is -1.54 ± 0.14 (30 °C) and -1.6 ± 0.14 (37 °C).

For AAUAAGCAAUAUUACGUAUG, the “self-splicing fitness (ln)” value is -2.2 ± 0.11 (30 °C) and -0.966 ± 0.12 (37 °C).

Turning to AAUAAGCAAUAUUACGUCUA, the “self-splicing fitness (ln)” value reads like this: (30 °C) -0.766 ± 0.077; (37 °C) 0.434 ± 0.1.

For AAUAAGCAAUAUUACGUUAG, the “self-splicing fitness (ln)” value runs as follows: (30 °C) -4.52 ± 0.19; (37 °C) -2.69 ± 0.17.

Values taken from the supplement of paper PMC7877785.
